Results on 7 substances are retold here after US20180245058.

Common to all, as to assay: cell_activity
Data set [1] addresses CCR5 ZFN with wild-type ZC linker (SBS #8266) (artificial) (UniProt P14870). The following applies: average of 2; ZFN pair.
For data set [2], the system named is CCR5 ZFN with L6a linker (artificial). Conditions: average of 2; ZFN pair.
Data set [3] deals with CCR5 ZFN with L7a linker (artificial). The following applies: ZFN pair.
For data set [4], the system named is mROSA-targeted ZFN pair, Wt/L7a linkers (artificial). Conditions: Neuro2A, CEL-I; mock 0.4.
Data set [5] deals with mROSA-targeted ZFN pair, Wt/Wt linkers (artificial). Conditions: Neuro2A, CEL-I; repeats 23.2 and 18.7; mock 0.4.
Data set [6] deals with rat IgM-targeted ZFN pair, ZC linkers (artificial). The following applies: rat C6 cells, CEL-I.
For data set [7], the system named is rat IgM-targeted ZFN pair including L7a linker (artificial). Conditions: rat C6 cells, CEL-I.

Chain of CCR5 ZFN with wild-type ZC linker (SBS #8266) (artificial) (P14870 other isoform, or with tags, fused parts or gaps): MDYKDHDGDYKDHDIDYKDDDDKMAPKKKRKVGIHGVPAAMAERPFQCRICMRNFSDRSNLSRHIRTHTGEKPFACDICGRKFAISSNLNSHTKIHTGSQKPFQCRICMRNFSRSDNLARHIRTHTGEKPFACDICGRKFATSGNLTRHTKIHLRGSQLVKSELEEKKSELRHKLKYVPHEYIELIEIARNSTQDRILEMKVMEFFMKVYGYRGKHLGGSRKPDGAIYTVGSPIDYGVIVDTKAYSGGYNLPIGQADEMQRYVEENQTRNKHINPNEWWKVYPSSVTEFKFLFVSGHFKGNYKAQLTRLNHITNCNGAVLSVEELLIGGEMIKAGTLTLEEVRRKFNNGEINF
Chain of CCR5 ZFN with L6a linker (artificial) (chain, as listed by the source): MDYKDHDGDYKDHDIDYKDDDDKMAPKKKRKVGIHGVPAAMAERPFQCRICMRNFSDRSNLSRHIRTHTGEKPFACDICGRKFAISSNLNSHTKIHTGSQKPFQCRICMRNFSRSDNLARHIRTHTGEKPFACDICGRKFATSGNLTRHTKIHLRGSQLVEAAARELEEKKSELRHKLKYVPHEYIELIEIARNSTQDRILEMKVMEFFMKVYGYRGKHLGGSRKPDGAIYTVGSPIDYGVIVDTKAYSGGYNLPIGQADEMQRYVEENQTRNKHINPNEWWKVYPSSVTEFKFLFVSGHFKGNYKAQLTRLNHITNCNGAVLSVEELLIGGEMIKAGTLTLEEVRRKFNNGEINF
Chain of CCR5 ZFN with L7a linker (artificial) (chain, as listed by the source): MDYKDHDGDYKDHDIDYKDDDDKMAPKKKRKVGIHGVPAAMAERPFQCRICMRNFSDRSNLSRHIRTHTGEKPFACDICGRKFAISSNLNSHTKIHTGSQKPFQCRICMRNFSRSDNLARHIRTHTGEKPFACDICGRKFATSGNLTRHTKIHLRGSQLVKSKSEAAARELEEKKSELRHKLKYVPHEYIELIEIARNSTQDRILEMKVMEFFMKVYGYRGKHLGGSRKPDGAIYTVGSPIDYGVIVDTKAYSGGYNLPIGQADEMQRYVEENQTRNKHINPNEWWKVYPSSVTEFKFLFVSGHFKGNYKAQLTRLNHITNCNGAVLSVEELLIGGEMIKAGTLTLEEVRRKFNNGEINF

In data set [1], CCR5 ZFN target, 4 bp gap showed an activity of 1.2 % NHEJ.
Consider CCR5 ZFN target, 5 bp gap, for which the activity in data set [1] is 35 % NHEJ; in data set [2] it was 39.3 % NHEJ.
CCR5 ZFN target, 6 bp gap: the activity was 31.8 % NHEJ in data set [3] (average of 2), 11.1 % NHEJ in data set [1] and 25.4 % NHEJ in data set [2].
As to CCR5 ZFN target, 7 bp gap, the activity is 39.6 % NHEJ in data set [3] (average of 2) and 5.1 % NHEJ in data set [2].
CCR5 ZFN target, 8 bp gap registered an activity in data set [3] (average of 2 as printed) of 6.1 % NHEJ.
In the case of mROSA target, 6 bp gap, the activity amounted to 7.5 % NHEJ in data set [4] and 22.6 % NHEJ in data set [5].
With rat IgM target, 6 bp gap, the activity in data set [6] amounted to 1.93 % NHEJ; in data set [7], 2.43 % NHEJ.
